Assay: yeast display, Sf9 membrane polyspecificity reagent, FACS + sequencing; frameworks hold sequencing errors
Procedure, shortened: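 Polyreactivity labels are assigned by the sorting gate from which each nanobody was recovered. The gates were low and high (top ~1%), set on anti-HA fluorescence for expression and streptavidin fluorescence for reagent binding. Before sorting, galactose-induced (36–48 hours) yeast display cells were stained for 1 hour at 4 °C with 10% biotinylated, detergent-solubilized Sf9 membrane reagent.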

Sequence	polyreactivity (PSR sort gate)
QVQLVESGGGLVQAGGSLRLSCAASGFTFYTYAMGWYRQAPGKERELVAAITGSGGRTYYADSVKGRFTISRDNAKTTVYLQMNSLKPEDTAVYYCAALYVYRPRTPYGYWGQGTQVTVSS	high polyreactivity
QVQLVESGGGLVQAGGSLRLSCAASGRTFYPNVMGWYRQAPGKERELVAAISISGGSTRYADSVKGRFTISRDNAKNTVYLQMNSLKPEDTAVYYCAAGYIYWYYSYDYWGQGTQVTVSS	high polyreactivity
QVQLVESGGGLVQAGGSLRLSCAASGSIFLGSVMVWYRQAPGKERELVATITGNGDGTYYADSVKGRFTISRDKAKNTVYLQMNSLKPADTAVYYCAADRSGPGYDYWGQGTQVTVSS	low polyreactivity
QVQLVESGGGLVQAGGSLRLSCAASGITFTGYSMGWYRQAPGKERELVAVISEKGGSTYADSVKGRFTISRDNAKNTVYLQMNSLKPEDTAVYYCAARLWWPYSTAWAKMDYWGQGTQVTVSS	low polyreactivity
QVQLVESGGGLVQAGGSLRLSCAASGFIFGYNDMGWSRQAPGKERELVAAINSGGSTYYADSVKGRFTISRDNAKNTVYLQMNSLKPDDTAVYYCAADYGYFEFDYWGQGTQVTVSS	low polyreactivity
QVQLVESGGGLVQAGGSLRLSCAASGLIIASYAMGWYRQAPGKERELVAAINTGGSTYYADSVKGRFTISRDNAKNTVYLQMNSLKPEDTAVYYCAARYTGLSYSRYGYWGQGTQVTVSS	high polyreactivity
QVQLVESGGGLVQAGGSLRLSCAASGSTFAWNAMGWYRQAPGKERELVAAISKSGGSTYYADSVKGRFTISRDHAKNTVYLQMNSLTPEDTAVYYCAARGTVYRRYGGSRYDYWGQGTQVTVSS	high polyreactivity
QVQLVESGGGLVQAGGSLRLSCAASGSTFVSYAMGWYRQAPGKERELVAAISFSDDSTYYADSVKGRFTISRDNAKNTVYFQMHSLKPEDTAVYYCAAASDSYVRVLEGFTFDYWGQGTQVTVSS	low polyreactivity
QVQLVESGGGLVQAGGSLRLSCAASGSTFGYNAMGWYRQAPGKERELVAAISYSGGSTSYADSVKGRFTLSRDNEKNTVYVQMNSLKPVDAAVYYCARESYSQYSSQALEGYGYWGQGTQVTVSS	low polyreactivity
QVQLVESGGGLVQSGGSLRLSCAASGRTFGYYDMGWYRQAPGKERELVASITRRGGSTYYADSVKGRFTISRDNAKNTVYLQMNSLKPEDTAGYYCAARYKARYEPARYDYWGQGTQVTVSS	high polyreactivity
QVQLVESGGGLVQAGGSLRLSCAASGFIFISYMGCDRQAPGKERELVAAISWSGTRTYYADSVKGRFTISRDNAKNTVYLQMNSLKPEDTAVYYCAARKYYDRYFYWGQGTQVTVSS	low polyreactivity
QVQLVDSGGGLVQAGGSLRLSCAASGRIFYYYAMGWYRQAPGKEREFVAAINSRDGSTNYADSVKGRFTISRDNAKNTVYLQMNSLKPEDTAVYYCAAEGYRSWRGLRSRYYYWGQGTQVTVSS	high polyreactivity
QVQLVESGGGLVQAGGSLRLSCAASGRTFWKYVMGWYRQAPGKERELVAVISRPAGSTYYADSVKGRFTISRDNAKNSVYLQMNSLKPEDTAVYYCAKRPKNKPVLGDYDHWGQGTQVTVSS	low polyreactivity
QGQLVESGGGLVQAGGSLRLSCAASGRTFYYNGMGWYRQAPGKERELVATITNGGSTNYADSVKGRFTISRDNAKNTVYLQMNSLKPEDTAVYYCAKTLASDCYDYWGQGTQVTVSS	low polyreactivity
QVQLVESGGGLVQAGGSLRLSCADSGRIFVYYAMGWYRQAPGKERELVASISYSGASTYYADSVKGRFTISRDNAKNTVYLQMNSLKPEDTAVYYCARDVWNYWDGVFQYYSYDFDYWGQGTQVTVSS	low polyreactivity
QVQHVESGGGLVQAGGSLRLSCAASGSTFKHNAMGWSRQAPGKERELVAGISWGGSSTYYADSVKGRFTISRDKAKNTVYLQMNSLKPEDTAVYYCAKGGYRRYGYDYWGQGTQVTVSS	low polyreactivity

Sequence	polyreactivity (PSR sort gate)
QVQLVESGGGLVQAGGSLRLSCAASGRTFVGYAIGWSRPATGKERELVAAISRTGGSTYYADSVKGRFTISRDNAKNTVYLQMNSLKPEDTAVYYCNAVTLSSTYGGHDYWGQGTQVTVSS	high polyreactivity
QVQLVESGGGLVQAGGSLRLSCAASGRTFVTNAMGWYRQAPGKERELVAAIRWSSDSTYYADSVKGRFTISRDNAKNTVYLQMNSLKPEDTAVYYCAKQWYVAKISYDYWGQGTQVTVST	high polyreactivity
KVQHVESGGGLVQAGGSLRLSCAASGLIFYRYAMGWYRQAPGKERELVAAISRSGSSTYYADSVKGRFTISRDNAKNTVYLQMNSLKPEDTAVYYCNAGYGWIWDDRGYWGQGSQVTVSS	high polyreactivity
QVQLVESGGGLVQAGGSLRLSCAASGRTFTANAMGWYRQAPGKERELVAAIRWRGGSTSYADSVKGRFTISRDNAKNTVYLQMNSLKPEDTAVYYCAAESRWRSSAGGYYYWGQGTQVTVSS	low polyreactivity
QVQLVESGGGLVQAGGSLRLSCAASGYTFKYYAMAWYRQAPGKERELVAAITRSGGGTYYADSVKGRFTISRDNAKNTVYLQMNSLKPEDTAVYYCKAVLSSHGTDAGSYSYDYWGQGTQVTVSS	high polyreactivity
QVQLVESGGGLVQAGGSLRLSCAASGRIFVHNAMGWYRQAPGKERELVAAIRSSGGRTYYADSVKGRFTISRDNAKKTVYLQMNSLKPEDTAVYYCAARFDTTRVGYWGQGTQVTVSS	high polyreactivity
QVQLVESGGGLVQAGGSLRLSCAASGFTFYRNAMGWYRQAPGKERELVAAISSRGGSTYYADSVKGRFTISRDNAKNTVYLQMNSLKPEDTAVYYCAAYGNYNEYDYWGQGTQVTVSS	high polyreactivity
HVQLVESGGGLVQAGGSLRLSCAASGSIFFRNTMGWTRQAPGKEREKVAAITRGGGRTYYADSVKGRFTISRDNAKNTVYLQMNSLQPEDTAVYYCNTADYHGRWAFAWYGDYWGQGTQVTVSS	high polyreactivity
QVQLVESGGGLVQAGGSLRLSCAASGRTFYKNAMGWYRQEPGTERELVAAISSRGGRTTYADSVKGRFTISRDNAKNTVYLQMISLKPEDTAVYYCAADWAQVYHGTPKYYYWGQGTQVTVSS	high polyreactivity
QVQLVESGGGLVQAGGSLRLSCAASGRIFGPYAMGWYRQAPGKERELVASISYSGGSTYYADSVKGRFTISRDNAKNTVYLQMNSLKPEDTAVYYCAKGGYWRGYNYYYWGQGTQVTVSS	low polyreactivity
QVQLVESGGGLVQAGGSLRLSCAASGLTFYSNAMGWYRQAPGKERELVARISTGGSTYADSEKGRFTISRDNAKNTVYLQMNSLKPEDTSFFYCAKLPPRGIDDEYWGQGTQVTVSS	low polyreactivity
QVQVVESGGGLVQAGGSLRLSCAASGSNFQRYTMGLYRQAPGKDRELVAAITGRGGSTYYADSVKGRFTISRDNAKNTVYLEMNSLKPEDTAVYYCAAGAFRRYKSDYYYWGQGTQVTVSS	low polyreactivity
QVQLVESGGGLVQAGGSLRLSCAASGRTFFPYAMGWYRQAPAKEREFVAAITKTDDSTYYADSVKGRFTISRDNAKNTVYLQMNSLKPEDTAVYYCNAGDTQIRFYYWGQGTQVTVSS	low polyreactivity
QVQLVESGGGLVQAGGSLRLSCAASGRTNCEYTMGWYRKAPGKERELVAVITKSGGSTYYADSVKGRFTISRDNAKNTVYLQMNSLKPEDTAVYDCAARRYYYLNSRYGYWGQGTQVTVSS	high polyreactivity
QVQLVESGGGLVQAGGSLRLSCAASGRTFVRNAKGWYRQAPGKERELVAAITSGGSTYYADSVKGRFTISRDNAKNTVYLQMNSLKPEDTAVYYCAAISTWGTKYDYWGQGTQVTVSS	high polyreactivity

Source: the nanobody polyreactivity screen of Harvey et al. (2022)
